Sequences and labels used below:
B1: glmS ribozyme (parent)
chain: AUAAAAGCGCCAGAACUACAGAAAUGUAGUUGACGAGGAGGAGGUUUAUCGAAUUUUCGGCGGAUGCCUCCAAA

± gives the standard error. This sample holds only a part of the variants without activity. Some results are limits rather than exact numbers.

In the first series the parent is B1. The experiment in a line: self-cleavage kobs at 2500 uM GlcN6P; higher = faster cleavage; RNA array. The note with it: with glucosamine-6-phosphate. In a few lines: (§1)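 Sequenced MiSeq chips were the platform: E. coli RNA polymerase transcribed barcoded ribozyme variants on them in situ, and a hybridised Cy3 probe tracked these at 37 °C. After glucosamine-6-phosphate (40 μM to 10 mM) in HEPES/KCl/Mg(OAc)2 buffer was flowed in, tiles were imaged over ~14 h. Signals normalised to baseline and to non-cleaving reference variants were reduced to per-tile medians and fit to one- or two-exponential decays to obtain kobs. kcat and KM were derived through weighted Michaelis–Menten fits across concentrations.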
Take AUAAAAGCGACAGAACUACAGAAAUGUAGUUGACUAGGAGGAGGUUUCUCGAAUUUUCGGCGGAUGCCUCCAAA: the “self-cleavage kobs at 2500 uM GlcN6P” value was below 1e-05 s⁻¹.

AUAAAAGCGCCAGAACUACAGAAAUGUAGUUGACGAGAAGGAGGUUUAUCGAAUUUUCGGCAGAUGGCUCCAAA: the “self-cleavage kobs at 2500 uM GlcN6P” value was below 1e-05 s⁻¹.

In the case of AUAAAAGCGCCAGUACUACAGAAAUGUAGUUGACGAGGAGGAGGGUAAUCGAACUUUCGGCUGAUGCCUCCAAA, the “self-cleavage kobs at 2500 uM GlcN6P” value is below 1e-05 s⁻¹.

As to AUAAAAGCGCCAGAAUUACAGAAAUGUAGUUGACGUGGUGGAGGUUUAUCGUAUUUUCGGCGGAUGCCUCCAAA, the “self-cleavage kobs at 2500 uM GlcN6P” value was below 1e-05 s⁻¹.

As for ACAAAAGCGCCAGAACUACAGAAAUGUAGUUGACGAGGAGGAGGUUUAUCGACUUUUCGGCGGAUGCCUCCAAA, the “self-cleavage kobs at 2500 uM GlcN6P” value was 0.00726 ± 0.0019 s⁻¹.

With AUAAAAGCGCCAGAACUACAGAAAUGUAGUUGCCGAGGAGGAGGUUUAUCAAACUUUCGGCGGAUGCCUCCAAA, the “self-cleavage kobs at 2500 uM GlcN6P” value is below 1e-05 s⁻¹.

As to AUAAAAGCGCCAGAACUACAGAAAUGUAGAUGUAGCCGAGGAGGUUUAUCGAAUUUGCGGCGGAUGCCUCCAAA, the “self-cleavage kobs at 2500 uM GlcN6P” value was below 1e-05 s⁻¹.

For AUAAAAGCGCCAGACCUACAGAAAUGUAGUUGACGAGGUGGAGGUUUAUGGAGUUUUCGGCGGAUGCCUCCAAA, the “self-cleavage kobs at 2500 uM GlcN6P” value was below 1e-05 s⁻¹.

Regarding AUAAAAGCGCCAGAACUACAGAAAUGUAGUUGACGAGGAGGAGGUUUAUCGAAUUUUUGGCGGAAGCGUCCAAA, the “self-cleavage kobs at 2500 uM GlcN6P” value was 0.000102 ± 3.1e-05 s⁻¹.

Take AUAAAAGUGCUAGAACUACAGAAAUGUAGUUGACGAGGCGGAGGUUUAUCAAAUUUUCGGCCGAUGCCUCCAAA: the “self-cleavage kobs at 2500 uM GlcN6P” value was below 1e-05 s⁻¹.

Regarding AUAAAAGCGCCGGAACUACAGAAAUGUAGUUGACGAGGAGGAGGUUUAUCGAACUUUCGGCGGAGGCCUCCAAA, the “self-cleavage kobs at 2500 uM GlcN6P” value is 3.01e-05 ± 1.2e-05 s⁻¹.

On to AUAAAAGCGCCAGUACUACAGAAAUGUAUUUGACGAGGAGGAGGUUUAUCGAAUUUUCGGCGGAUGGCUCCAAA, for which the “self-cleavage kobs at 2500 uM GlcN6P” value is 6.46e-05 ± 2.8e-05 s⁻¹.

AUAAAAGCGCCAGAACUACAGAAAUGUAGUUGACGAGGAGGUGGCUUAUCGGAUUUUCGGCGGAUGCCUUCAAA: the “self-cleavage kobs at 2500 uM GlcN6P” value is below 1e-05 s⁻¹.

As for AUAAAAGCGCCAGAACUACAGAAAUGUAGUUGACGAGGAGCUGGUUUAUCGAAUUUUCGCCCGAUGCCUCCAAA, the “self-cleavage kobs at 2500 uM GlcN6P” value is below 1e-05 s⁻¹.

Turning to AUAAAAGCGUCAGAACUACAGAAAUGUAUUUGACGAGGAGGAGGUUUAUCGAAUUUCCGGCGGAUGCCUCCAAA, the “self-cleavage kobs at 2500 uM GlcN6P” value is below 1e-05 s⁻¹.

As for AUAAAAGCGCCAGAGCUACAGAAAUGUAGUUGACGAGGAGGAGGUUUCUUGAAUUUUCGGCGGAUGCCUCCAAA, the “self-cleavage kobs at 2500 uM GlcN6P” value was below 1e-05 s⁻¹.

For the variant AUAAAAGGUCCAGAAAUACAGAAAUGUAGUUGACGAGGAGGAGGUUUAUCGACUUUUCGGCGGAUGCCUCCAAA, the “self-cleavage kobs at 2500 uM GlcN6P” value is below 1e-05 s⁻¹.

Regarding AUAAAAGCGCCAGAACUACAGAAAUGUAGUUGACGAGCAGGAGGUUUAUCGAAUUUACGGCGUAUGCCUCCAAA, the “self-cleavage kobs at 2500 uM GlcN6P” value was below 1e-05 s⁻¹.

With AUAAAAGCGCCAGAACUACAGAAAUGUAGAUGACGAGGAGGAGGUUUAUCGAAUUUUAGGCGGAUGUCUCCAAA, the “self-cleavage kobs at 2500 uM GlcN6P” value was determined as 4.25e-05 ± 1.9e-05 s⁻¹.

In the case of AUAAAUGCGCCAGAACUACAGAAAUGUAGAUGCCGAGGAGGAGGGUUAUCGAAUUUUAGGCGGAUGCCUCCAAA, the “self-cleavage kobs at 2500 uM GlcN6P” value is below 1e-05 s⁻¹.

For AUAAAAGUGCCUGAACUACAGAAAUGUAGUUGAAGAGGAGGAGGUUUAUCGAAUUUUCGGCGGAUGCCUCCAAA, the “self-cleavage kobs at 2500 uM GlcN6P” value was below 1e-05 s⁻¹.

Take AUAAAAGCGCCAAAACUACAGAAAUGUAGUUGACGAGGAGGAGGUUUACUGAAUUUUCGGCGGAUGCCUCCAAA: the “self-cleavage kobs at 2500 uM GlcN6P” value was below 1e-05 s⁻¹.

With AUAAAAGCGCCAGAACUACAGAAAUGUAUUUGACGAACAGGAGGUUUAUCGAAUUUUCGUCGGAUGCCUCCAAA, the “self-cleavage kobs at 2500 uM GlcN6P” value is below 1e-05 s⁻¹.

Regarding AUAAAAGCGCCAGAAGUACAGAAAUGUAGUUGACGUGGAGGAGGUUUAUCGAAUUUUCGACGGAUGCCUCCAAA, the “self-cleavage kobs at 2500 uM GlcN6P” value is below 1e-05 s⁻¹.

For the variant AUAAAUGCGCCAGAACUACAGAAAUGUAGUUGACGAGGAGGAGGUUAAUCGAGUUUUCUGCGGAUGCCUCCAAA, the “self-cleavage kobs at 2500 uM GlcN6P” value was below 1e-05 s⁻¹.

With AUAAAAGCGUAAGAACUACAGAAAUGUAGUUGACGAGGAGGAGGUUUAUCGAAUUUUCGGCGGAUGCCUACAAA, the “self-cleavage kobs at 2500 uM GlcN6P” value was found to be 7.8e-05 ± 2.7e-05 s⁻¹.

For the variant AUAAAAGCGCCAGAACUACAGAAAUGUAGUUGGCGAGGAGGAGGUUUAUCGGAUUUUCGGCGAAUGCCUCCAAA, the “self-cleavage kobs at 2500 uM GlcN6P” value is below 1e-05 s⁻¹.

In the case of AUAAAAGCGCCAGAACUACAGAAAUGUAGUUCACGAAGAGGCGGUUUAUCGACUUUUCGGCGGAUGCCUCCAAA, the “self-cleavage kobs at 2500 uM GlcN6P” value was below 1e-05 s⁻¹.

For the variant AUAAAAGCGCCGGAACUACAUAAAUGUAGUUGACGAGGAGGAGGUUGAUCGAAUUUUCGGCGGAAGCCUCCAAA, the “self-cleavage kobs at 2500 uM GlcN6P” value amounted to 6.16e-05 ± 1.7e-05 s⁻¹.

On to AUAAAAGCGCCAGAACUACAGAAAUGUAGCUGACGAGGAGGAGGUUUAUCGAAUCGUCGGCGGAUGCCCCCAAA, for which the “self-cleavage kobs at 2500 uM GlcN6P” value was below 1e-05 s⁻¹.

On to AUAAAACCGCCAGAACUACAGAAAUGUAAUUGACGAGGAGGAGGUUUAUCGAAUUUUCGGCUGAUGCCUCCAAA, for which the “self-cleavage kobs at 2500 uM GlcN6P” value is below 1e-05 s⁻¹.

Turning to AUAAAAGCGCCAGCAUUACAGAAAUGUAGUUGACGAGGAGGAGGUUUAUCGAAUUUUCGGCGGAUGCGUCCAAA, the “self-cleavage kobs at 2500 uM GlcN6P” value was 9.4e-05 ± 2.8e-05 s⁻¹.

AUAAAAGCGCCAGAACUACAGAAAUGUAGUUGACGAGGGGGACGUUUAUCGCAUUUUCGGCGGAUGCCUCCAAA: the “self-cleavage kobs at 2500 uM GlcN6P” value was below 1e-05 s⁻¹.

In the case of AUAAAAGCGCCAGAACUACAGAAAUGUAGUUGAAGAUGUGGAGGUUUAUCGAAUUUCCGGCGGAUGACUCCAAA, the “self-cleavage kobs at 2500 uM GlcN6P” value was below 1e-05 s⁻¹.

For the variant AUAAAAGCGCCAGAACUACAGAAAUGUAGUUGGCGAGGAGGAGGUUUAUCGGAUUUUCGGCAGAUGCCUCCAAA, the “self-cleavage kobs at 2500 uM GlcN6P” value is below 1e-05 s⁻¹.

As for AUAAAGGCGCCAGAACUACAGAAAUGUAGUUGACGAGGAGGAGGUUUAUCGAAUUUUCUGUGGAUGCCUCCAAA, the “self-cleavage kobs at 2500 uM GlcN6P” value was below 1e-05 s⁻¹.

The next series covers variants of B1. The experiment in a line: self-cleavage kobs at 10000 uM GlcN6P; higher = faster cleavage; RNA array. The note with it: with glucosamine-6-phosphate. An outline of the steps:
as §1
As for AUAAAAGCGCCAGAACUACAGAAAUGUAGAUGUAGCCGAGGAGGUUUAUCGAAUUUGCGGCGGAUGCCUCCAAA, the “self-cleavage kobs at 10000 uM GlcN6P” value was below 1e-05 s⁻¹.

These data come from the supplement of paper PMC7125110.
